System: P68135
Experiment: TIRF microscopy of single actin filaments
Settings: other: TIRF microscopy of single actin filaments (depolymerization)

Substance: alpha skeletal actin from rabbit muscle
- barbed end depolymerization rate (effective off-rate of ADP and ADP.Pi subunits): 3.4 ± 0.7 sub/s (mean ± SD)

— paper doi:10.1101/2025.11.17.688760
